In patent publication US6716597B2, “Methods and products for regulating cell motility” (priority 2000, dated 2004):

Assays:
[1] = test system: MV^D7 cells; experiment: Time-lapse videomicroscopy cell speed in Ena/VASP-deficient MV^D7 fibroblasts; assay type: cell-based, mouse; settings: MV^D7 cells expressing the construct vs parental MV^D7
Description: (§1) Cells adapted to microscopy media (Life Technologies, Rockville, Md.) as described above were trypsinized, counted, and resuspended in microscopy media at 7.14×10^3 cells/mL. 1.4 mL (10,000 cells) of this cell suspension was added to a ΔT dish (Bioptechs Inc., Butler, Pa.) that had previously been coated overnight with 10 μg/mL fibronectin (Becton Dickinson) at 4° C. and then blocked with lmg/mL cell-culture-grade BSA (Sigma, St. Louis, Mo.). Cells were allowed to attach and spread for 1 hour at 37° C. before movies were initiated. 10x phase contrast movies were 4.5 hours long with a frame taken every five minutes. A custom time-lapse collection script written in IPLabs was used to automate microscope and camera function. Light was shutter controlled. Movies were considered analysis-quality if there were no focus or bubble problems and cells remained alive and dividing throughout the experiment. Once a movie met the quality control criteria, it was transferred into the image analysis program DIAS (Solltech, Inc., Oakdale, Iowa.) and cells were outlined using the Trace on Movie command. […] Cell paths were generated from the calculated centroid positions and parameters (speed and membrane flow) were calculated from the resulting path file. Speed was calculated using the Central Difference Method in DIAS, which is equivalent to a root mean squared calculation. […]

[2] = test system: Rat2 cells; experiment: Count of vinculin- or zyxin-positive focal adhesions per cell; assay type: cell-based, rat; settings: Rat2 cells after complete spreading
Description: Rat2 cells (ATCC, Manassas, Va.) were plated and allowed to spread for 1.5-2 hours on acid-washed glass coverslips that had been coated overnight at 4° C. with 10 μg/mL fibronectin (Becton Dickinson, Franklin Lakes, N.J.). Cells were fixed with ice-cold 4% paraformaldehyde in PBS for 10 minutes at room temperature. Cells were washed twice with PBS and then permeabilized with 0.2% Triton X-100 in PBS for 3 minutes and washed two more times with PBS. Coverslips were blocked for 30 minutes in 5% BSA (RIA grade)/5% normalized Donkey serum in PBS. All subsequent antibody steps were incubated in 1% BSA/PBS for at least 30 minutes and washes were in PBS. Anti-Mena polyclonal antisera (2197, produced by Gertler laboratory) was used at 1:400, anti-VASP polyclonal antisera (M4, Alexis Corporation, San Diego, Calif.) was used at 1:400, coumarin-phallicidin (Molecular Probes Inc., Eugene, Oreg.) was used at 1:20, anti-vinculin monoclonal antibody (F7g, a kind gift from K. Burridge) was used at 1:20. All secondary antibodies (Texas Red-, Cy5-Donkey anti-rabbit or anti-mouse, Jackson ImmunoResearch Laboratories, Inc., West Grove, Pa.) were used at 1:500. Coverslips were mounted with Fluoromount G (Electron Microscopy Sciences, Fort Washington, Pa.) and viewed on a Zeiss Axiophot microscope equipped with a Deltavision imaging and software system (Applied Precision Inc., Issaquah, Wash.).
Cell-population analysis was undertaken to explore the hypothesis that focal adhesion formation and number are unaffected by overexpression or sequestration of Ena/VASP proteins. Because cell migration depends on adhesion as well as actin polymerization at the leading edge, the various cell populations were analyzed to determine if the assembly, morphology or distribution of focal adhesions was affected. EGFP-Mena overexpressing (the “high ” population), FPPPP-mito (SEQ ID NO: 3) and control cells were each stained after complete spreading with a battery of focal adhesion markers (FAK, vinculin, paxillin, tensin, phosphotyrosine, and zyxin).

[3] = test system: Rat2 fibroblasts; experiment: Time-lapse videomicroscopy random migration assay (cell speed, polarity); assay type: cell-based, rat; settings: Rat2 cells expressing the construct
Description: as §1, with “controlled.” for “controlled. Movies were considered analysis-quality if there were no focus or bubble problems and cells remained alive and dividing throughout the experiment. Once a movie met the quality control criteria, it was transferred into the image analysis program DIAS (Solltech, Inc., Oakdale, Iowa.) and cells were outlined using the Trace on Movie command.”
Rat 2 cells were exposed to 0, 5 nM, 25 nM, 50 nM, or 500 nM cytochalasin D and motility was measured. One set of cells received no cytochalasin D. Other cells received a low dose of cytochalasin D (e.g. 5 nM or 25 nM) or a high dose of cytochalasin D. (e.g. 500 nM) The motility of the treated cells was assessed using the motility assay described above.

[4] = test system: Rat2 cells; experiment: Membrane flow (protrusion/retraction, shape change) from digitized movies; assay type: cell-based, rat; settings: centroid fixed, independent of translocation
Description: as §1

[5] = test system: Listeria; experiment: Listeria motility in MVD7 cells expressing Mena constructs; assay type: cell-based, Listeria monocytogenes; settings: high expression level, compared with GFP-Mena high (FIG. 11)
Description: MVD7 cells were seeded onto a Bioptics dish the night before an experiment, and Listeria was also cultured overnight taking care to not over saturate the bacterial culture. MVD7 cells were then exposed to Listeria. The Bioptics dishes were centrifuged at 500×g for 3 min in a swinging bucket centrifuge to force the bacteria up against the MVD7 cells. The cells were then incubated for 1.5 hrs at 37° C. The plates were washed 3 times with media to remove bacteria not associated with cells. Bacteria were then viewed with 100x phase contrast microscopy. Time-lapse movies were recorded and speeds were quantitated with DIAS software.

Molecule	cell speed [1]	Number of Focal Adhesions per Cell (±SD), Vinculin+ [2]	Number of Focal Adhesions per Cell (±SD), Zyxin+ [2]	cell polarity / polarized morphology [3]	cell speed ([3]; fibronectin, 4.5 hour movies)	average membrane flow per unit time (shape change) [4]	Listeria motility (speed) [5]
EGFP-Mena: EGFP fused to full-length Mena (amino acids 1-541 of SEQ ID NO: 2), expressed from retroviral vector pMSCV (protein, left off: large carriers) MSEQSICQARAAVMVYDDANKKWVPAGGSTGFSRVHIYHHTGNNTFRVVGRKIQDHQVVINCAIPKGLKYNQATQTFHQWRDARQVYGLNFGSKEDANVFASAMMHALEVLNSQEAAQSKVTATQDSTNLRCIFCGPTLPRQNSQLPAQVQNGPSQEELEIQRRQLQEQQRQKELERERMERERLERERLERERLERERLEQEQLERQRQEREHVERLERERLERLERERQERERERLEQLEREQVEWERERRMSNAAPSSDSSLSSAPLPEYSSCQPPSAPPPSYAKVISAPVSDATPDYAVVTALPPTSTPPTPPLRHAATRFATSLGSAFHPVLPHYATVPRPLNKNSRPSSPVNTPSSQPPAAKSCAWPTSNFSPLPPSPPIMISSPPGKATGPRPVLPVCVSSPVPQMPPSPTAPNGSLDSVTYPVSPPPTSGPAAPPPPPPPPPPPPPPPLPPPPLPPLASLSHCGSQASPPPGTPLASTPSSKPSVLPSPSAGAPASAETPLNPELGDSSASEPGLQAASQPAESPTPQGLVLG	The MV^D7 cells migrated significantly faster than the MV^D7/EGFP-Mena cells	72.7 ± 14.4	73.6 ± 20	distinct lack of polarity	cell speeds decreased with increasing levels of EGFP-Mena expression	changed shape the least	wild-type Listeria are mobile in MVD7 cells that express EGFP-Mena
APPPP-mito: Control of FPPPP-mito with phenylalanine changed to alanine in each repeat; does not bind Ena/VASP proteins (protein, left off: large carriers) VNASDAPPPPTDEELRLALPETPMLLGFNAPATSEPSSFEAPPPPTDEELRLALPETPMLLGFNAPATSEPSSFEAPPPPTEDELEIIRETASSLDSSFTRGDLASLRNAINRHSQNFSDAPPIPTEEELNGRGGRPTSEEFSSLNSGDFTDDENSETTEEEIDRLADLRDRGTGKHSRNAGFLPLNPFASSPVPSLSPKVSKISAPALISDITKKTPFKNPSQPLNVFNKKTTTKTVTKKPTPVKTAPKLAELPATKPQETVLRENKTPFIEKQAETNKQSINMPSLPVIQKEATESDKEEMKPQTEEKMVEESESANNANGKNRSAGIEEGKLIAKSAEDEKAKEEPGNHTTLILAMLAIGVFSLGAFIKIIQLRKNN		81.6 ± 13.9	79.2 ± 29				
